{"source": "the DeepSol protein solubility set"}
{"assay": "soluble on expression in E. coli; label from the status in PepcDB or PDB records"}
{"sequence": "GPGSMLRRTLRRLMPSDAIGSVHPDVLWGYQQGQYAGPGWANFVKSLPLETLAMQGGSTMANLNDRAGTFLDPEDPRHPLALMQFGIMGKMDGTFHQLAYGDFGRVPKGSRLMQVLYENYLEPFSMNRVCAQLYFYQKVPNNYHASVDATAEYVGQTASLVGQVVVGLGACIMEGVTIRADTNCVYIAEGVQILENTCIMSDAPTDLLAYQRHELLNPYQQWDGMDGVTRIMPNTIIESNCYLDGCSIGSFNRIGHNTKIMKGVTTGIMVHIMPGSVVTADTKIGDGELWGGAPACKIGEVSKFEYKRPYYASLLHRESVAESYRNMSRYGDQFVHYMNAMGQLETLMIHYEDHVTPGIKAKVRDFEEGREPFHHTITRIAQGWSPANRPDDKNFAMAPPAPGVKLFAEHNTDSSPSEWNGSYANITNIFNDFRW", "soluble on expression in E. coli": "not soluble"}
{"sequence": "GPGSMMIDGAINPREWFNWHPKEYQPWYFDRHKFIYEQGQYAAYNHLLCHQAYLKDIEHLTRYPEPRTFVIDCRMSPAKMHRWVPHSMWLPRDEVEYALQLTNDEFQEMYGFIKPAKDDDVILISHNGLASEQAGWEWRKQYYQHVYNYRGGTNELFGEDYQDFILKDRLDPWKGPYPQKSIFVDKWSKRKVLTRTGPFDRQYEMQDFALPDLELERPRHSEDGPRQNMPYGLQ", "soluble on expression in E. coli": "not soluble"}
{"sequence": "GPGSMMNLAPDTITIGAQRNTELLLLEYLRSTNPHIHALWQRHPNKDNDASSSSAASSPSKDTRGASGSDVGDANASSSSAASALRESFDYTEPRLYRAAHVHFLMENLSVAPQGFSSLYPSRPWIVYWALQAADVLNSMESEVLHRTPPSAIVAFLHSCLSVDHTCQAEVNNRLAAAATSARGAPEGKDPHVTGTPLESSTTSVTLERDSADATSATLMPPVEDAAEVAEGPSRPVMGFAGGATHQEPHIASSYAACCALAMLSWYGDGAPLRQLPRAAIKRWLLTLRNEDGSFRVHGGGESDIRASYCAAVITTLLGLDDPTTFDGEAGRCEFVDDVRDVPVLTLQTARFVAACQTHEGGFTCSPTASEAHGAYTQCGLAALLLMKQPHMVHQASLRRWLAARQLNYEGGFNGRTNKLVDSCYSHWIGASHVLLRTVEAYTKCFTEVPTTHSRNGDGTGGCEDGYREDVDCTPSARCLRAREVVLLDHAQLLDAKMIHASADDAWDRAESAHLTRLGVVDQFLGADDAVLRSAEEKRTAVTALYERLLESRLAAVRSCDGNGDAAAGDVQGSLEAWRARQAFLYADVGDFYFNQRKLQDYVLRCCQDSEIGGLMDKPQTAHDGYHTCYSLSGLSAAQNLQYRTHVTAADAAYPSTYLERAFARSYLPGRESGSTSGNEEGSCGVVLGLPNTSAAAESMLLRTTSPIFNIHQSRVLSALRAWSVKAFV", "soluble on expression in E. coli": "not soluble"}
{"sequence": "GPGSMMSSATLSDVETLENIPRGAPIGGSGIVSGTASEGSSRGAERSTVANVSEDGERGRREEEEDRKPLIMDQSVIMDEEPYISPAKAKKISWKCGLCGYYVLAMDHNGNPLELTNSPSGEPLPMSCPRCMLLHHDWEPAVPFDDFNNHANIRSKQSNSYVISDQKSGKQAGFVPARTPAERDLKKTSADITRILQEVEDRWRNYAPRESPTSREQGPKGRLMAYYCDKCNRELLRMDQYGELVPMVSDKEGKPLPIVCPGCKEEHSEWVVRPFTVTR", "soluble on expression in E. coli": "soluble"}
{"sequence": "GPGSMPLERSFIDPGHASMGYEAGLIPRLRRDSIVRGVLEENEDMLREIDLLRDTVTKQAQELFTATKRIHVLESRLARLEGAEDASHERTDDSDNVEEVTSVDKAGILRSIFRAISSCQFGDRHTRIRAYKQGLVRKSAEKARDFGEKSEKKSELPGKEQQDFLGHAFHESNKRLDEVSSLLQSYRKTPSFLVSAYDELVIDCMMEIIRLSKKMNLMTVGDFGALAD", "soluble on expression in E. coli": "not soluble"}
{"sequence": "GPGSMPPSTAAPYALRTDKLKPLEGYVAGCSVSPAEVASQVASSLQPVVLAICGSFNPIHNAHLKLYDAAKRSVDGADGRVVLGGFLSPVGDAYGKPGLRSAADRVHIMRKALCHHPDLNVDTWECQQPVYMRTFFVLQALEEHINAWYAESEPAAVEWLASHDRRVRVAFVCGADLFSSFWIPGCWQLRLLRQLLDSFHLVVVHRDGGRGCVRGADDFAHVCQTAPLLSETAEGGEKIEIDMSQYTFTFATFSAPDDTSSTAVRAAAMELARTPQGDAVTRAALQSRLRAMLPEAAVQSVVELYGKVLTS", "soluble on expression in E. coli": "not soluble"}
{"sequence": "GPGSMQLQSRAPEHFSTPFFSSPSSSVAYESGCSLDALERLVHFTGAGADACLYAVHPPQAKGTDSAALTPTTEGLRYWLNPSVRARPTTATCEITNLGPPFFASTSTAVLRISATPLFVDGRCFPTRCVVSLATSAQRLDGVSLRPVVVTEWNLTASGAAGVCTTTVPLRTLYHLAVLISSSAPATGVEEVRLYLHLRFMGCSDGSDTHRIAAVRLRYEQLGTAAEVLPQLLQRRQRAAAHVMLPSPYDVKYHSEGRFTRAGAPLEEVEVGVIAGSSTATSSGRKDMGDDAGKSLFVGAKERRTHTSPPSSTRMRSDGCETRGDRRRGRAPRGC", "soluble on expression in E. coli": "soluble"}
{"sequence": "GPGSMQTAHAHTMTAQMKVLKPKTVFDNRPDEARKPIKLILLGDSAVGKSKLVERFLMQRYIPVQMSTYALTLYRYDFVTEDGEEVDVDIWDTAGQERFATVHPSYYHDAHACILVFDSTRKATYKNLEKWLSEMRVYREHIPCLVACNKIDTDPSVTTKSFAFAEKHNFPLYYVSAADGSNVVQLFESAISTAAAYKKNPAKDDFMTQVIGILKEDKTAAGASAVSS", "soluble on expression in E. coli": "soluble"}
{"sequence": "GPGSMRLLSFSNVPLFLALFPPLPLLSCASVWHTRRHSFSEIFFVGSFIAAPFRCIVSPRVALYRARLRFLAPAACTRALPFAYTGQQGERQIKMITATADAGSAAKAAAAPPARMFDCLDAASKERVTMLLSHYQVLLPVEQASFMQELERYNQEQQTTALERNKAGEVWIRYTNPRLQAVQARDPAYVQRSISHTAASRGSKGDAAPEEATAPCSLEDLVHIRGMFGEPEGVPIRVGKMSLYEKLQQNMRNRRSTACGSLANTTVSSIPTAADAGHGAARVSVPFGPFAEAPAKPAEGKREVGDNASPKTSAQSESGERAVALVCADTFPSHTSSVRPSAPYRNNAYQAVRLAMSSPGYTATTQPTSVAELQTPLDGVKPVLNTTAFPITEEELRDWFDELDVHGRGVLSVEEFQRYMQSLERDLGVPTEYATLELDGAQLAKDGWLSFEAFSYLVLRFVRA", "soluble on expression in E. coli": "not soluble"}
{"sequence": "GPGSMRPSRKRQARRQHPWQQRSVAHKAQRAPSSGHGASGVEHLPRDAVVHVAPRQQHRPVGQAHRRIKRHRVVLRQQKVVPHKRHSRARHAHSPTHRHRVLAQQEVAVNKRHHGAATGRNTALHRHAQPQRRLHRQPVHVERTARRQRHAAN", "soluble on expression in E. coli": "soluble"}
{"sequence": "GPGSMRRVVITGLGLVSPLAGDVEYSWKRLLEGKSGVRRITEFDVSDLSCQIAARIPVGDGTNGTYNADLHMESKEQRKVDAFIVYAIAAADQALADAEWFPKSDEDQICTGVLIGSGIGGIEGIVEAGYTLRDKGPRRISPFFIPGRLINLASGYVSIKYGLRGPNHSVVTACSTGAHAIGDAARLIALGDADVMLAGGTESPINRISLAGFSACRALSTCRNDDPERASRPYDVDRDGFVMGEGAAIVVLEELEHAKKRGARIYAEIIGYGLSGDAYHITAPSESGEGAQRSMMAALKRAQVNVSELDYINAHGTSTMADVIELAAVERVLGYYAPQVSMSSTKSSIGHLLGAAGAAEAIFCVLAIRDNIAPATLNLENPSIETKIDLVPHKPRERKIDTVLSNSFGFGGTNASLVMRRFSE", "soluble on expression in E. coli": "soluble"}
{"sequence": "GPGSMSAHDSSAMALIAHMNDIEQQRRVLSMSQREQEAKIAFTTAEKEQLVQAAKAAEAEEAQLKDDLEVLATEQQQLELQKMEATDRLRRTQAEEALHTAAVEADLQALAKEKVLWHERAQDLESLRRSWEEDAATSSCIAALRQESEMLAPLKAEKTAVEDALAETMAAIEKVRAEQQARLTCLGSVGAPADAVQRSGLARALASMHGSALSDGNTATVDDDDTAAALEEEIKRADYEAAQVTARHGRTIAVLQREVDALSTRAGELQQLLSSIGASWQEVLSRTRDLQHCKETGLCRRCLT", "soluble on expression in E. coli": "soluble"}
{"sequence": "GPGSMSDAFDIDEDMKMRIRVLNEIMYEDELDDGQQDVHLARGDIIDGTSDSDRDDNGGGGQRRRERRRGGGGADVCAPGPPRAETWAAVEGPEAAAASAASSLQQRAPRDEYHDKRYHEKRSKDRLARTKQIQSARNERVPAYANKKKTSKAKAGGSKGSLQRAVKRGKFTADA", "soluble on expression in E. coli": "soluble"}
